# Residue numbers refer to the chain shown, from its start.
# B1: H4H14728P (antibody, human IgG4 S228P, kappa, V domains shown)
# VH: QVQLQESGPGLVKPSQTLSLTCTVSGGSISSADYYWSWIRQHPGKGLEWIGSIYYTGSTYYNPSLKSRLTISIDTSENQFSLKLTSLTAADTAVYYCASEEANWGSHFDSWGQGTLVTVSS
# VL: DIQMTQSPSSLSASVGDRVTITCRASQSIDNFLNWYQQKPGKAPKLLIYAASSLQSGVPSRFSGSGSGTDFTLTISSLQPEDFASYYCQHSHSAHPITFGQGTRLEIKR
# B2: H4H14731P (antibody, human IgG4 S228P, kappa, V domains shown)
# VH: QLQLQESGPGLVKPSETLSLTCTVSGGSISSSNYYWGWIRQPPGKRLEWIGSIYYSGSTYYNPSLKTRVTISVDTSKNQFSLKLTSVTAADTAVYYCAREEAAALTHFDFWGQGTLVTVSS
# VL: B1 VL with D30S, F32Y, Y49F, S85T, A94S
# B3: H4H14699P2 (antibody, human IgG4 S228P, kappa, V domains shown)
# VH: EVQLVESGGGLVQPGRSLRLSCAASGFTFDDYAIHWVRQAPGKGLEWVSVISWNSDIIGYADSVKGRFTVSRDNAKNSLYLQMNSLRTEDTALYYCAKGYNWNFFDYWGQGTLVTVSS
# VL: EIVLTQSPATLSLSPGERATLSCRASQSVSSYLAWYQQKPGQAPRLLIYNAANRATDIPARFSGSGSGTDFTLTISSLEPEDFAVYYCQQRSNWPLTFGGGTKVEIKR
# notes: Fully human anti-IL-36R antibody
# B4: H4H14700P2 (antibody, human IgG4 S228P, kappa, V domains shown)
# VH: B3 VH with I34M, A40T, I57V, G59A, A61S, V70I, R87G, Y100H
# VL: B3 VL with A51V, S77G, Y87F
# Biological target: T1, full-length human IL-36R on cells (human, UniProt Q9HB29 20-575)
# T1 sequence (looked up): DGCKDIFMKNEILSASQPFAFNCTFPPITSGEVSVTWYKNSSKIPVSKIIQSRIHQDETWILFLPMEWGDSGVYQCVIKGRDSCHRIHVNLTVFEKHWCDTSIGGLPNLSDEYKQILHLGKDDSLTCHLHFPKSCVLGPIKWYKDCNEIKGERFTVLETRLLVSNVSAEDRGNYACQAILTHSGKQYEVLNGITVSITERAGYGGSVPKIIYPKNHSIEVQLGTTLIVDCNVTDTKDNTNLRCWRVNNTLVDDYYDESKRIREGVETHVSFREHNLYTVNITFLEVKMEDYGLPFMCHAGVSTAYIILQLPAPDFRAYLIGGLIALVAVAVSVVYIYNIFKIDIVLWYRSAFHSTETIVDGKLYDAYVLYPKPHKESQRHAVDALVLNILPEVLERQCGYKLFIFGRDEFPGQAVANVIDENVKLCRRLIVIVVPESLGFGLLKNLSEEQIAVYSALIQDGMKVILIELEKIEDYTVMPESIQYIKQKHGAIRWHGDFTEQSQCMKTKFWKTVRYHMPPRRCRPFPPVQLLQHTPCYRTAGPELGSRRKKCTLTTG
# Assay: cell-based or functional assay
"IC50 [M], NFκB-luciferase, 10 pM hIL-36γ [M]","IC50 [M], NFκB-luciferase, 15 pM hIL-36β [M]","IC50 [M], NFκB-luciferase, 20 pM hIL-36α [M]","Max Inhibition (%), NFκB-luciferase, 10 pM hIL-36γ [%]","Max Inhibition (%), NFκB-luciferase, 15 pM hIL-36β [%]","Max Inhibition (%), NFκB-luciferase, 20 pM hIL-36α [%]",Binder
1.2e-09,1.3e-09,9.7e-10,99,99,97,B1
7.3e-10,9.4e-10,7.8e-10,99,99,99,B2
1.4e-10,1.3e-10,1.3e-10,99,100,100,B3
1.2e-10,2e-10,1.9e-10,100,100,101,B4

# Biological target: T2, Macaca fascicularis IL-36R on cells (Macaca fascicularis, UniProt A0A2K5WSK9 20-558)
# T2 sequence: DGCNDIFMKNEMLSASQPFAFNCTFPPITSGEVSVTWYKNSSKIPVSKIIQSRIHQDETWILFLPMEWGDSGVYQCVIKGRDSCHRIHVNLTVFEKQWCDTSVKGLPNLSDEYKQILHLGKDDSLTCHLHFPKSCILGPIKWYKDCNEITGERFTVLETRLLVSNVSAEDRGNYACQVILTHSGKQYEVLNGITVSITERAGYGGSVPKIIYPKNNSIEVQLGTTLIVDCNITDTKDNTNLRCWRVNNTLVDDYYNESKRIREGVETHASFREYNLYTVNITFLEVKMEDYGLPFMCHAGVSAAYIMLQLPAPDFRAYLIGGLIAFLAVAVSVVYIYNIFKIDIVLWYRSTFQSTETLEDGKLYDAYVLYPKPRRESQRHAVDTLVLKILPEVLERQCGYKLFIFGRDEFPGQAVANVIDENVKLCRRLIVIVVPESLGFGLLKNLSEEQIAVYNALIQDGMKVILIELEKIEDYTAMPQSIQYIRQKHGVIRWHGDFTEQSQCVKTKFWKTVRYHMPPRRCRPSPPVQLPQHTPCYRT
# Assay: cell-based or functional assay
"IC50 [M], NFκB-luciferase, 300 pM hIL-36γ [M]","IC50 [M], NFκB-luciferase, 500 pM hIL-36α [M]","IC50 [M], NFκB-luciferase, 600 pM hIL-36β [M]","Max Inhibition (%), NFκB-luciferase, 300 pM hIL-36γ [%]","Max Inhibition (%), NFκB-luciferase, 500 pM hIL-36α [%]","Max Inhibition (%), NFκB-luciferase, 600 pM hIL-36β [%]",Binder
2e-09,1.3e-09,1.5e-09,93,93,95,B1
5.4e-09,3.1e-09,7.1e-09,75,84,78,B2
2e-10,8.4e-11,1.9e-10,97,97,98,B3
1.8e-10,1.2e-10,1.8e-10,99,99,99,B4

# Biological target: T3, recombinant human IL-36R extracellular domain expressed with a C-terminal myc-myc-hexahistidine tag (human, UniProt Q9HB29 20-337)
# T3 construct: also called hIL-36R-MMH; hIL-36R.mmH
# Assay: SPR (Biacore 4000), mAb captured on anti-human Fc, 25°C
# Method: (§1) Equilibrium dissociation constants (KD values) for IL-36R binding to purified anti-IL-36R antibodies were determined using a real-time surface plasmon resonance biosensor using a Biacore 4000 instrument. The Biacore sensor surface was first derivatized by amine coupling with a monoclonal mouse anti-human Fc antibody (GE, # BR-1008-39) to capture anti-IL-36R monoclonal antibodies. All binding studies were performed in 0.01 M Hepes pH 7.4, 0.15 M NaCl, 3 mM EDTA, and 0.05% v/v Surfactant Tween-20 (HBS-ET running buffer) at 25° C. and 37° C. Different concentrations of IL-36R reagents, human IL-36R extracellular domain expressed with a C-terminal myc-myc-hexahistidine tag (hIL-36R-MMH), Macaca fascicularis IL-36R extracellular domain expressed with a C-terminal myc-myc-hexahistidine tag (mfIL-36R-MMH: mROR1 signal sequence (M1-A29). Macaca fascicularis IL36R_ecto domain (D20-A336).mycmycHis6), human IL-36R extracellular domain expressed with a C-terminal mouse IgG2a Fc tag (hIL-36R-mFc: mROR1 signal sequence (M1-A29)-human IL36R (D20-Y337)-mouse IgG2aFc (E98-K330)) or an in-line fusion protein of human IL-36R extracellular domain and IL1RAcP extracellular domain expressed with mouse IgG2a Fc tag (hIL-36R-Trap-mFc: mROR1 signal sequence (M1-A29)-human IL36R ecto domain (D20-Y337)-human IL1RacP ecto domain(S21-E359)-mouse IgG2aFc) in HBS-ET running buffer (ranging from 100 nM to 3.7 nM, 3-fold dilutions) were injected over the anti-IL-36R antibody captured surface for 4 minutes at a flow rate of 30 μL/minute and their dissociation in HBS-ET running buffer was monitored for 10 minutes. Kinetic association rate constant (kₐ) and dissociation rate constant (kd) were determined by fitting the real-time sensorgrams to a 1:1 binding model using Scrubber 2.0c curve fitting software. Binding dissociation equilibrium constants (KD) and dissociative half-lives (t_{1/2}) were calculated from the kinetic rate constants as: […]
# Target sequence in this assay (Q9HB29 other isoform, or with tags, fused parts or gaps limits assumed): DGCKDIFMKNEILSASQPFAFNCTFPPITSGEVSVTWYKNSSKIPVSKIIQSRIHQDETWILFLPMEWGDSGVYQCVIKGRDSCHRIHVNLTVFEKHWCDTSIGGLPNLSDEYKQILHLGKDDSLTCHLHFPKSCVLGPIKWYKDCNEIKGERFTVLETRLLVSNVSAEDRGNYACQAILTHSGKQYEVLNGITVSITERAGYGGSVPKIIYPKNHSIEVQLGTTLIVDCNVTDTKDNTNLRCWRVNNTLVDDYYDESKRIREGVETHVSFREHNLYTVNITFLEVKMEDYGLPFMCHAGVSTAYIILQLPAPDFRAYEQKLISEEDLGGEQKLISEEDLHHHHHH
100 nM hIL-36R-MMH Bound (RU),Kd [nM],koff [s⁻¹],kon [M⁻¹ s⁻¹],t½ [min],Binder
69,7.87,0.000773,98300,15,B1
54,3.72,0.000343,92200,34,B2
74,10.2,0.00168,165000,7,B3
67,4.82,0.000579,120000,20,B4

# Biological target: T3, recombinant human IL-36R extracellular …
# Assay: SPR (Biacore 4000), mAb captured on anti-human Fc, 37°C
# Method: as §1
100 nM hIL-36R-MMH Bound (RU),Kd [nM],koff [s⁻¹],kon [M⁻¹ s⁻¹],t½ [min],Binder
93,21.5,0.00293,136000,4,B1
81,7.11,0.000971,137000,12,B2
89,29.5,0.00418,142000,2.8,B3
89,10.5,0.00184,176000,6,B4

# Source: US20200017592A1 (Regeneron, published 2020)
